Results reported in the supplement of paper PMC12458215.
± gives the uncertainty stated by the source.

System: HEK293T
Test: plasma membrane surface immunostaining intensity (anti-HA, deep receptor scanning) (arbitrary fluorescence units); higher = higher plasma membrane expression

Row | Sequence | plasma membrane surface immunostaining intensity (GPCR class: A (Olfactory)) | further results
1 | MEKLLRLCCWYSWLLLFYYNFQVRGVYSRSQDHPGFQVLASASHYWPLENVDGIHELQDTTGDIVEGKVNKGIYLKEEKGVTLLYYGRYNSSCISKPEQCGPEGVTFSFFWKTQGEQSRPIPSAYGGQVISNGFKVCSSGGRGSVELYTRDNSMTWEASFSPPGPYWTHVLFTWKSKEGLKVYVNGTLSTSDPSGKVSRDYGESNVNLVIGSEQDQAKCYENGAFDEFIIWERALTPDEIAMYFTAAIGKHALLSSTLPSLFMTSTASPVMPTDAYHPIITNLTEERKTFQSPGVILSYLQNVSLSLPSKSLSEQTALNLTKTFLKAVGEILLLPGWIALSEDSAVVLSLIDTIDTVMGHVSSNLHGSTPQVTVEGSSAMAEFSVAKILPKTVNSSHYRFPAHGQSFIQIPHEAFHRHAWSTVVGLLYHSMHYYLNNIWPAHTKIAEAMHHQDCLLFATSHLISLEVSPPPTLSQNLSGSPLITVHLKHRLTRKQHSEATNSSNRVFVYCAFLDFSSGEGVWSNHGCALTRGNLTYSVCRCTHLTNFAILMQVVPLELARGHQVALSSISYVGCSLSVLCLVATLVTFAVLSSVSTIRNQRYHIHANLSFAVLVAQVLLLISFRLEPGTTPCQVMAVLLHYFFLSAFAWMLVEGLHLYSMVIKVFGSEDSKHRYYYGMGWGFPLLICIISLSFAMDSYGTSNNCWLSLASGAIWAFVAPALFVIVVNIGILIAVTRVISQISADNYKIHGDPSAFKLTAKAVAVLLPILGTSWVFGVLAVNGCAVVFQYMFATLNSLQGLFIFLFHCLLNSEVRAAFKHKTKVWSLTSSSARTSNAKPFHSDLMNGTRPGMASTKLSPWDKSSHSAHRVDLSAV [ADGRD1] |  | plasma membrane surface immunostaining intensity (GPCR class: B): 1550 ± 390
2 | MEKWNHTSNDFILLGLLPPNQTGIFLLCLIILIFFLASVGNSAMIHLIHVDPRLHTPMYFLLSQLSLMDLMYISTTVPKMAYNFLSGQKGISFLGCGVQSFFFLTMACSEGLLLTSMAYDRYLAICHSLYYPIRMSKMMCVKMIGGSWTLGSINSLAHTVFALHIPYCRSRAIDHFFCDVPAMLLLACTDTWVYEYMVFVSTSLFLLFPFIGITSSCGRVLFAVYHMHSKEGRKKAFTTISTHLTVVIFYYAPFVYTYLRPRNLRSPAEDKILAVFYTILTPMLNPIIYSLRNKEVLGAMRRVFGIFSFLKE [OR2L13] | 139 ± 4.1 | 
3 | MELAVGNLSEGNASWPEPPAPEPGPLFGIGVENFVTLVVFGLIFALGVLGNSLVITVLARSKPGKPRSTTNLFILNLSIADLAYLLFCIPFQATVYALPTWVLGAFICKFIHYFFTVSMLVSIFTLAAMSVDRYVAIVHSRRSSSLRVSRNALLGVGCIWALSIAMASPVAYHQGLFHPRASNQTFCWEQWPDPRHKKAYVVCTFVFGYLLPLLLICFCYAKVLNHLHKKLKNMSKKSEASKKKTAQTVLVVVVVFGISWLPHHIIHLWAEFGVFPLTPASFLFRITAHCLAYSNSSVNPIIYAFLSENFRKAYKQVFKCHIRKDSHLSDTKESKSRIDTPPSTNCTHV [GALR1] |  | plasma membrane surface immunostaining intensity (GPCR class: A): 6490 ± 69
4 | MELLKLNRSVQGTGPGPGASLCRPGAPLLNSSSVGNLSCEPPRIRGAGTRELELAIRITLYAVIFLMSVGGNMLIIVVLGLSRRLRTVTNAFLLSLAVSDLLLAVACMPFTLLPNLMGTFIFGTVICKAVSYLMGVSVSVSTLSLVAIALERYSAICRPLQARVWQTRSHAARVIVATWLLSGLLMVPYPVYTVVQPVGPRVLQCVHRWPSARVRQTWSVLLLLLLFFIPGVVMAVAYGLISRELYLGLRFDGDSDSDSQSRVRNQGGLPGAVHQNGRCRPETGAVGEDSDGCYVQLPRSRPALELTALTAPGPGSGSRPTQAKLLAKKRVVRMLLVIVVLFFLCWLPVYSANTWRAFDGPGAHRALSGAPISFIHLLSYASACVNPLVYCFMHRRFRQACLETCARCCPRPPRARPRALPDEDPPTPSIASLSRLSYTTISTLGPG [CCKBR] |  | plasma membrane surface immunostaining intensity (GPCR class: A): 2920 ± 830
5 | MELRNSTLGSGFILVGILNDSGSPELLYATFTILYMLALTSNGLLLLAITIEARLHMPMYLLLGQLSLMDLLFTSVVTPKALADFLRRENTISFGGCALQMFLALTMGSAEDLLLAFMAYDRYVAICHPLKYMTLMSPRVCWIMVATSWILASLIAIGHTMYTMHLPFCVSWEIRHLLCEIPPLLKLACADTSRYELIIYVTGVTFLLLPISAIVASYTLVLFTVLRMPSNEGRKKALVTCSSHLIVVGMFYGAATFMYVLPSSFHSPKQDNIISVFYTIVTPALNPLIYSLRNKEVMRALRRVLGKYILLAHSTL [OR2AG2] | 164 ± 69 | 
6 | MELWNFTLGSGFILVGILNDSGSPELLCATITILYLLALISNGLLLLAITMEARLHMPMYLLLGQLSLMDLLFTSVVTPKALADFLRRENTISFGGCALQMFLALTMGGAEDLLLAFMAYDRYVAICHPLTYMTLMSSRACWLMVATSWILASLSALIYTVYTMHYPFCRAQEIRHLLCEIPHLLKVACADTSRYELMVYVMGVTFLIPSLAAILASYTQILLTVLHMPSNEGRKKALVTCSSHLTVVGMFYGAATFMYVLPSSFHSTRQDNIISVFYTIVTPALNPLIYSLRNKEVMRALRRVLGKYMLPAHSTL [OR2AG1] | 135 ± 23 | 
7 | MEMFTFLLTCIFLPLLRGHSLFTCEPITVPRCMKMAYNMTFFPNLMGHYDQSIAAVEMEHFLPLANLECSPNIETFLCKAFVPTCIEQIHVVPPCRKLCEKVYSDCKKLIDTFGIRWPEELECDRLQYCDETVPVTFDPHTEFLGPQKKTEQVQRDIGFWCPRHLKTSGGQGYKFLGIDQCAPPCPNMYFKSDELEFAKSFIGTVSIFCLCATLFTFLTFLIDVRRFRYPERPIIYYSVCYSIVSLMYFIGFLLGDSTACNKADEKLELGDTVVLGSQNKACTVLFMLLYFFTMAGTVWWVILTITWFLAAGRKWSCEAIEQKAVWFHAVAWGTPGFLTVMLLAMNKVEGDNISGVCFVGLYDLDASRYFVLLPLCLCVFVGLSLLLAGIISLNHVRQVIQHDGRNQEKLKKFMIRIGVFSGLYLVPLVTLLGCYVYEQVNRITWEITWVSDHCRQYHIPCPYQAKAKARPELALFMIKYLMTLIVGISAVFWVGSKKTCTEWAGFFKRNRKRDPISESRRVLQESCEFFLKHNSKVKHKKKHYKPSSHKLKVISKSMGTSTGATANHGTSAVAITSHDYLGQETLTEIQTSPETSMREVKADGASTPRLREQDCGEPASPAASISRLSGEQVDGKGQAGSVSESARSEGRISPKSDITDTGLAQSNNLQVPSSSEPSSLKGSTSLLVHPVSGVRKEQGGGCHSDT [FZD6] |  | plasma membrane surface immunostaining intensity (GPCR class: F): 329 ± 75
8 | MENGSYTSYFILLGLFNHTRAHQVLFMMVLSIVLTSLFGNSLMILLIHWDHRLHTPMYFLLSQLSLMDVMLVSTTVPKMAADYLTGSKAISRAGCGAQIFFLPTLGGGECFLLAAMAYDRYAAVCHPLRYPTLMSWQLCLRMNLSCWLLGAADGLLQAVATLSFPYCGAHEIDHFFCETPVLVRLACADTSVFENAMYICCVLMLLVPFSLILSSYGLILAAVLHMRSTEARKKAFATCSSHVAVVGLFYGAAIFTYMRPKSHRSTNHDKVVSAFYTMFTPLLNPLIYSVKNSEVKGALTRCMGRCVALSRE [OR2T8] | 132 ± 16 | 
9 | MENQSSISEFFLRGISAPPEQQQSLFGIFLCMYLVTLTGNLLIILAIGSDLHLHTPMYFFLANLSFVDMGLTSSTVTKMLVNIQTRHHTISYTGCLTQMYFFLMFGDLDSFFLAAMAYDRYVAICHPLCYSTVMRPQVCALMLALCWVLTNIVALTHTFLMARLSFCVTGEIAHFFCDITPVLKLSCSDTHINEMMVFVLGGTVLIVPFLCIVTSYIHIVPAILRVRTRGGVGKAFSTCSSHLCVVCVFYGTLFSAYLCPPSIASEEKDIAAAAMYTIVTPMLNPFIYSLRNKDMKGALKRLFSHRSIVSS [OR1N1] | 119 ± 14 | 
10 | MENVTTMNEFLLLGLTGVQELQPFFFGIFLIIYLINLIGNGSILVMVVLEPQLHSPMYFFLGNLSCLDISYSSVTLPKLLVNLVCSRRAISFLGCITQLHFFHFLGSTEAILLAIMAFDRFVAICNPLRYTVIMNPQVCILLAAAAWLISFFYALMHSVMTAHLSFCGSQKLNHFFYDVKPLLELACSDTLLNQWLLSIVTGSISMGAFFLTLLSCFYVIGFLLFKNRSCRILHKALSTCASHFMVVCLFYGPVGFTYIRPASATSMIQDRIMAIMYSAVTPVLNPLIYTLRNKEVMMALKKIFGRKLFKDWQQHH [OR12D3] | 148 ± 34 | 
11 | MEPAPSAGAELQPPLFANASDAYPSACPSAGANASGPPGARSASSLALAIAITALYSAVCAVGLLGNVLVMFGIVRYTKMKTATNIYIFNLALADALATSTLPFQSAKYLMETWPFGELLCKAVLSIDYYNMFTSIFTLTMMSVDRYIAVCHPVKALDFRTPAKAKLINICIWVLASGVGVPIMVMAVTRPRDGAVVCMLQFPSPSWYWDTVTKICVFLFAFVVPILIITVCYGLMLLRLRSVRLLSGSKEKDRSLRRITRMVLVVVGAFVVCWAPIHIFVIVWTLVDIDRRDPLVVAALHLCIALGYANSSLNPVLYAFLDENFKRCFRQLCRKPCGRPDPSSFSRAREATARERVTACTPSDGPGGGAAA [OPRD1] |  | plasma membrane surface immunostaining intensity (GPCR class: A): 6220 ± 99
12 | MEPEINCSELCDSFPGQELDRRPLHDLCKTTITSSHHSSKTISSLSPVLLGIVWTFLSCGLLLILFFLAFTIHCRKNRIVKMSSPNLNIVTLLGSCLTYSSAYLFGIQDVLVGSSMETLIQTRLSMLCIGTSLVFGPILGKSWRLYKVFTQRVPDKRVIIKDLQLLGLVAALLMADVILLMTWVLTDPIQCLQILSVSMTVTGKDVSCTSTSTHFCASRYSDVWIALIWGCKGLLLLYGAYLAGLTGHVSSPPVNQSLTIMVGVNLLVLAAGLLFVVTRYLHSWPNLVFGLTSGGIFVCTTTINCFIFIPQLKQWKAFEEENQTIRRMAKYFSTPNKSFHTQYGEEENCHPRGEKSSMERLLTEKNAVIESLQEQVNNAKEKIVRLMSAECTYDLPEGAAPPASSPNKDVQAVASVHTLAAAQGPSGHLSDFQNDPGMAARDSQCTSGPSSYAQSLEGPGKDSSFSPGKEEKISDSKDFSDHLDSGCSQKPWTEQSLGPERGDQVPMNPSQSLLPERGGSDPQRQRHLENSEEPPERRSRVSSVIREKLQEVLQDLGLGPEASLSTAPSCHQQTWKNSAAFSPQKMPLSKELGFSPYMVRRRRAAQRARSHFPGSAPSSVGHRANRTVPGAHSRLHVQNGDSPSLAPQTTDSRVRRPSSRKPSLPSDPQDRPGTLEGSKQSQTEPEGARGSKAAFLRQPSGSGRAPSPAAPCLSKASPDLPEQWQLWPPVPSGCASLSSQHSYFDTESSSSDEFFCRCHRPYCEICFQSSSDSSDSGTSDTDPEPTGGLASWEKLWARSKPIVNFKDDLKPTLV [GPR156] |  | plasma membrane surface immunostaining intensity (GPCR class: C): 352 ± 30
13 | MEPEKQTEISEFFLQGLSEKPEHQTLLFTMFLSTYLVTIIGNALIILAIITDSHLHTPMYFFLFNLSLVDTLLSSTTVPKMLANIQAQSRAIPFVGCLTQMYAFHLFGTMDSFLLAVMAIDRFVAIVHPQRYLVLMCSPVCGLLLGASWMITNLQSLIHTCLMAQLTFCAGSEISHFFCDLMPLLKLSGSDTHTNELVIFAFGIVVGTSPFSCILLSYIRIFWTVFKIPSTRGKWKAFSTCGLHLTVVSLSYGTIFAVYLQPTSPSSSQKDKAAALMCGVFIPMLNPFIYSIRNKDMKAALGKLIGKVAVPCPRPEQLLDVYHVPGSLLAARDTEMHPIPYPGGVQSLAGNRDME [OR1I1] | 161 ± 47 | 
14 | MEPLNRTEVSEFFLKGFSGYPALEHLLFPLCSAMYLVTLLGNTAIMAVSVLDIHLHTPVYFFLGNLSTLDICYTPTFVPLMLVHLLSSRKTISFAVCAIQMCLSLSTGSTECLLLAITAYDRYLAICQPLRYHVLMSHRLCVLLMGAAWVLCLLKSVTEMVISMRLPFCGHHVVSHFTCKILAVLKLACGNTSVSEDFLLAGSILLLPVPLAFICLSYLLILATILRVPSAARCCKAFSTCLAHLAVVLLFYGTIIFMYLKPKSKEAHISDEVFTVLYAMVTTMLNPTIYSLRNKEVKEAARKVWGRSRASR [OR13J1] | 140 ± 33 | 
